Assay results as given in article PMC4442024 (Nature, 2015).
Values joined by “and” are separate entries in the source; they are usually repeats but may differ in a detail not shown here. Identical values can stand only once. Values belong to the molecule of their own block, whether it stands above or below them.

T1: purified recombinant Flag–STX17 (human, UniProt P56962 1-302)
T1 sequence (looked up): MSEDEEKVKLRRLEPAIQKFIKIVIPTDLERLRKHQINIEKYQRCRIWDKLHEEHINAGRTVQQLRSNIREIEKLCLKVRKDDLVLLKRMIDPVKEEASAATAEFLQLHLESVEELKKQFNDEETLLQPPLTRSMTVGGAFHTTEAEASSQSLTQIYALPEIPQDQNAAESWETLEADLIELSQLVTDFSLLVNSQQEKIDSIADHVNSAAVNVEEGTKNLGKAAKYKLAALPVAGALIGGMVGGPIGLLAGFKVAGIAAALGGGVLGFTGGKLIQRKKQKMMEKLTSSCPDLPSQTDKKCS

B1: purified recombinant Flag-tagged VAMP8 (natural protein, human, UniProt Q9BV40 1-100, looked up)
chain: MEEASEGGGNDRVRNLQSEVEGVKNIMTQNVERILARGENLEHLRNKTEDLEATSEHFKTTSQKVARKFWWKNVKMIVLICVIVFIIILFIVLFATGAFS
B2: purified recombinant Flag-tagged SNAP29 (natural protein, human, UniProt O95721 1-258, looked up)
chain: MSAYPKSYNPFDDDGEDEGARPAPWRDARDLPDGPDAPADRQQYLRQEVLRRAEATAASTSRSLALMYESEKVGVASSEELARQRGVLERTEKMVDKMDQDLKISQKHINSIKSVFGGLVNYFKSKPVETPPEQNGTLTSQPNNRLKEAISTSKEQEAKYQASHPNLRKLDDTDPVPRGAGSAMSTDAYPKNPHLRAYHQKIDSNLDELSMGLGRLKDIALGMQTEIEEQDDILDRLTTKVDKLDVNIKSTERKVRQL

Columns and labels:
[1] = biological target: purified recombinant ATG14 (UniProt Q6ZNE5); experiment: SEC-MALS
[2] = biological target: B2; experiment: SEC
[3] = biological target: T1, purified recombinant Flag–STX17; experiment: SEC

stoichiometry N [1]: 2 and 4
Molecule: purified recombinant ATG14 (from UniProt Q6ZNE5 1-492) (natural protein; other documents disagree on this pair)

Molecule: B1
binding result [2]: binds

Molecule: B2
binding result [3]: binds
